Source: the RNAGym collection of RNA variant scans (doi:10.1073/pnas.2313332121)

B1: TPR t1 (parent)
chain: GACCAAUCUGCCCUCAGAGCUCGAGAACAUCUUCGGAUGCAGAGGAGGCAGGCUUCGGUGGCGCGAUAGCGCCAACGUCCUCAACCUCCAAUGCAUCCCACCACAUGAUGAUGCCUGAAGAGCCUUGGUUUUUUG

Variants of: B1
Test: polymerase ribozyme fitness, log enrichment relative to wild type (log ratio); higher = more active; in vitro selection for triplet polymerase activity
Method in brief: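 In triplicate, a single round of in vitro selection was run on each mutant library, PCR-built and transcribed, covering one subunit of a heterodimeric triplet polymerase ribozyme. Frozen incubation at −7 °C followed annealing with a biotinylated primer, partner subunit and triplets, and extended constructs were then gel-excised, streptavidin-captured and taken through RT-PCR. Fitness is the logarithm of genotype enrichment over wild-type enrichment, from inverse-variance-weighted replicate averages of Illumina-sequenced inputs and outputs. […] only genotypes with ≥10 input reads and ≥1 read per output were kept.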

Row | Variant | polymerase ribozyme fitness (log ratio)
1 | G36U G61U | -0.625
2 | A29U G45C U55G C64U G93U U109A G117U | -5.42
3 | C34A G48U G93C | -4.96
4 | A24G G52A C115U | -2.59
5 | C40A G52A G58A C62U A119U U126A | -4
6 | U9G G93C A100U A118G | -1.35
7 | C82A G113U C114U | -1.55
8 | U54A C73A U78C C102A | -1.97
9 | U30C C115A | -2.84
10 | C15U G57A G58A U109G G113A | -7.08
11 | C4U C72U | -0.857
12 | G19U G60A C79U G120C | -2.44
13 | C49A U78A U129G | -1.45
14 | A5C U9C G61C | -1.78
15 | C49A G61U U87C C98A | -3.8
16 | G61C G135U | -2.53
17 | G35U U106C G122A | -6.34
18 | G10C A16U | -1.98
19 | C11G G35A G117U | -6.34
20 | A26U A41C A46U G61A C101U | -4.43
21 | A5U C72U U81C | -0.617
22 | C11A G42A U54A C64U U129C | -4.74
23 | A2U A27G U54G C123U | -3.79
24 | U9C G45C U131G | -1.16

Row | Variant | polymerase ribozyme fitness (log ratio)
25 | A18C G48U G57U | -2.85
26 | G69U C72G | -1.29
27 | C12A A66G G69U G71U | -2.65
28 | G42A G48U | -2.42
29 | G60U C70A | -3.78
30 | A41U C53U | -1.15
31 | C13U A66G C76U C88U G128C | -3.51
32 | G35A U55C C115U | -5.27
33 | G57A C62U | -0.892
34 | G23C C64U G120U U133A | -7.42
35 | A2C G52A | -2.22
36 | A18G G93C | -3.75
37 | G63U A100C | -2.79
38 | C22A C49G G69U C85U | -2.28
39 | C79G G127U | -2.87
40 | C49U C73A A74U C102U | -3.4
41 | A2U A18U A29U A41U G60A | -5.23
42 | U109A C124U | -4.15
43 | A18C A43G C72G C114U U129C | -4.8
44 | A46C U92C U106G C115U U125G U132A | -6.92
45 | C115A A119G | -0.948
46 | C64G | -6.67
47 | C64A | -6.28
48 | A37U C123U U126A | 0.344

Row | Variant | polymerase ribozyme fitness (log ratio)
49 | U14C C70A G117U | -5.57
50 | A27G C56G C89U G110U | -3.06
51 | A5G C8G G113U | -1.74
52 | A103C G120A | -3.52
53 | C80G G117C | -6.43
54 | A37U G122A | -1.18
55 | A6U C13U G61C U112A | -1.1
56 | A46U C73A | -1.49
57 | C72A C89U U92G | -1.39
58 | A16G C72G | -1.66
59 | U7G U38G U54C C56U G110A G122U | -3.58
60 | A16G A18C U54G A121G | 0.49
61 | A27C C40G | -4.98
62 | C22A C82G U112G | -5.26
63 | C4A U32C G69U G113A | -2.74
64 | G35A G63C | -5.56
65 | C62U U109C | -4
66 | G36U A74G A83U C101G | -3.95
67 | C8G C13G G17A G122A | -0.902
68 | G10A C88A C123U | 1.69
69 | G39C C73A A74U | -0.844
70 | C34U U78G | -5.06
71 | C72G A84C | -0.56
72 | A6U G48U G93A G110U | -2.34

Row | Variant | polymerase ribozyme fitness (log ratio)
73 | A29G A37C G71U G117U | -4.47
74 | A41U C56G G69C U92A | -5.43
75 | C115A U125G | 0.221
76 | C70U U78A | -1.17
77 | U9G C89A A100U U116A | -4.84
78 | G61A G77C U96A | -1.55
79 | C40A G77C | -1.98
80 | C62U C115G | -2.51
81 | U9A A43U A50C | -1.66
82 | U54C C64U G77U G113C U132A G135U | -3.36
83 | A2C A41C | -2.75
84 | G10A U81A G110A U129A | -5.01
85 | C53U C72A | 0.143
86 | C53A U55A G63A G71U G120C | -4.29
87 | C8U A75U C89U A90U C99U G120A U130G U131A | -4.88
88 | C80U G127C | -3.21
89 | A27C C124U | -1.18
90 | G35A G52U | -3.5
91 | C15A G47U C123U | -2.56
92 | G19U C62G G71U | -3.71
93 | C73A G120C | 1.81
94 | A50G C53A C70G | -2.47
95 | C11G C40U C53U A68G U87A A90U U112A G127C | -6.81
96 | C15G A119G | 0.41

Row | Variant | polymerase ribozyme fitness (log ratio)
97 | C62G U96A C123U | -3.13
98 | A5U C72U C114U | -2.7
99 | C3U C53U G57C U59A C88G | -2.35
100 | U9C G45C G48A A90C | -0.81
101 | G51U | -3.23
102 | G122U C124G | -0.864
103 | C22U C62U | -4.34
104 | G47U A95U A108G C123A | -3.06
105 | U9G C56G G61U G93C | -3.2
106 | A37C A91C | -0.946
107 | C15U A111U A118C | -5.19
108 | C73A | 0.0792
109 | G36C G42A C89U C114A G117C | -6.44
110 | C53A C79U C86U | -0.479
111 | C53G G77U C86A | -1.02
112 | C11G A27U G47C G69U A83U | -2.78
113 | G39C G48U A75U | -1.28
114 | C4U C15U G57U A100C | -4.18
115 | U14A G36U A37U | -3.4
116 | A16U A26G C56U C88U C124G | -1.25
117 | G10U G63C | -0.933
118 | U21A C70A | -3.21
119 | C115U G120C C123A | 0.543
120 | U78C G117U | -2.53

Row | Variant | polymerase ribozyme fitness (log ratio)
121 | A24U G47A G110A C114A | -6.75
122 | A37U C86U | -0.912
123 | U78A C104A | -1.8
124 | G117C C124U | -3.55
125 | C15G G71U | -1.94
126 | C8G C34A C72G C82U G110U | -4.9
127 | C20U G110C | -4.31
128 | C56G G110U G117A | -4.5
129 | C102U C124A | -0.401
130 | C8A U130G | 0.269
131 | G39U C76G | -0.793
132 | G48A C123A G135A | 0.126
133 | A43U U87G C102U | -5.04
134 | A50U C62U U133G | -1.1
135 | C53U C72A A91G | -1.6
136 | G71U G120U | -0.136
137 | C86A G113C | -3.02
138 | C72A U131A | -0.165
139 | G61C A100U | -2.98
140 | C8U G48U G71U A74U C104A G117A C124U | -6.05
141 | C56U C89G | -1.27
142 | A16C C62U A83C C88G | -2.71
143 | C72G A90G | -1.28
144 | A74C U126G | -2.5

Row | Variant | polymerase ribozyme fitness (log ratio)
145 | C53G A90C G117U | -3.56
146 | C8G G69C U96A | -2.59
147 | C22G C49G A84U C86U | -4.89
148 | C4U G10U G52U C88G C123U | -0.494
149 | G60U G71A U92G C123A | -6.18
150 | C12A C70A C80U | -2.16
151 | C28U C101A C123G G128U | -3.71
152 | U7G G110C | -3.83
153 | C40G G47U C49A | -3.74
154 | A50U C115A U133C | 0.332
155 | G36U C72U | -1.51
156 | U55G G58A U130A | -0.383
157 | G39A C40U C72G | -2.72
158 | A37U G39U G69A | -4.43
159 | C8U C70G A111U | -6.19
160 | C101A C115A A121C U125A | -0.732
161 | G48C A95G U106A | -0.768
162 | U21G A46G G48U A100C C102A | -5.54
163 | C13A G17U | -4.98
164 | U9G C53G C115A G127U | -0.417
165 | U14A A111C C115A | -5.18
166 | C40A G52A C72U A91G | -4.17
167 | G17C C62U | -4.67
